Measurements reported in patent publication US20110158985A1.

Substrate: F protein of RSV (Long strain) (RSV (Long strain)) (UniProt P12568)
Assay: cell-based or functional assay

F protein of RSV (Long strain) (RSV (Long strain)), sequence (P12568 26-574): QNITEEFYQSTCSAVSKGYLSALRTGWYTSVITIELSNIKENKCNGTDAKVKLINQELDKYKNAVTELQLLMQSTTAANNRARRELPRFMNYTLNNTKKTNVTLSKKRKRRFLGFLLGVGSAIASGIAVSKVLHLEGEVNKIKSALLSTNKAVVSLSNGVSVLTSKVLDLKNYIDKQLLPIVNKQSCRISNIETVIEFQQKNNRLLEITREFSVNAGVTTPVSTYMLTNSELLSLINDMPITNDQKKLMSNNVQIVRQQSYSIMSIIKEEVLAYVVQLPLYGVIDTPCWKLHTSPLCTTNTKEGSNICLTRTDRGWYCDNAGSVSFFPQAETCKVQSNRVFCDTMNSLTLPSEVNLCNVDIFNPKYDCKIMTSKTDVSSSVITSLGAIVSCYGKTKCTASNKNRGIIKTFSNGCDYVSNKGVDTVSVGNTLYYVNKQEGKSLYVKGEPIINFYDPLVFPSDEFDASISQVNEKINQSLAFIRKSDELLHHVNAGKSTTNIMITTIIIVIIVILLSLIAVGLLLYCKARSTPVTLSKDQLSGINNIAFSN

Row | Binder | IC50 [nM] | Mean IC50 (Control) [µg/mL] | Mean IC50 (Curve) [µg/mL]
1 | P12f4 Fab (Fab, V domains shown) VH: QVTLRESGPALVKPTQTLTLTCTFSGFSLSTPGMSVGWIRQPPGKALEWLADIWWDGKKHYNPSLKDRLTISKDTSKNQVVLKVTNMDPADTATYYCARDMIFNFYFDVWGQGTTVTVSS VL: DIQMTQSPSTLSASVGDRVTITCSLSSRVGYMHWYQQKPGKAPKLLIYDTRGLPSGVPSRFSGSGSGTEFTLTISSLQPDDFATYYCFQGSGYPFTFGGGTKVEIK | 0.7 | 0.0351 | 0.0464
2 | A1h5 Fab (Fab, V domains shown) VH: QVTLRESGPALVKPTQTLTLTCTFSGFSLSTAGMSVGWIRQPPGKALEWLADIWWDGKKHYNPSLKDRLTISKDTSKNQVVLKVTNMDPADTATYYCARDMIFNWYFDVWGQGTTVTVSS VL: DIQMTQSPSTLSASVGDRVTITCSLSSSVGYMHWYQQKPGKAPKLLIYDTFFHRSGVPSRFSGSGSGTEFTLTISSLQPDDFATYYCFQGSGYPFTFGGGTKVEIK |  | 0.176 | 0.194
